From US20240321457A1, “SYSTEMS FOR AND METHODS OF TREATMENT SELECTION” (THE REGENTS OF THE UNIVERSITY OF CALIFORNIA, priority 2020, published 2024)

Target: UBE2N (human) (UniProt P61088)
Test: AP-MS, PPI score from compPASS and SAINTexpress, MDA-MB-231 cells

Sequence of UBE2N (human) (P61088 whole entry): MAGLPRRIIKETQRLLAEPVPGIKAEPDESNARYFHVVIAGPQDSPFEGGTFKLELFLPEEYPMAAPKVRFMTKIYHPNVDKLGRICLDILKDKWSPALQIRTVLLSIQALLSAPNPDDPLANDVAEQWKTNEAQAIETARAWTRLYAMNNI

- PPI score: < 0.6
Substance: BRCA1 isoform lacking exon 11 (from UniProt P38398 1-721) (enzyme)
